Positions count from the first letter of the chain named.
Assays:
Assay in all cases: SPR, KD relative to WT C2;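 also: biacore SPR at 37 °C, anti-C2 mAbs captured via immobilised goat anti-human IgG, C2 alanine or serine surface mutants as analytes, 1:1 model fitted, double-referenced sensograms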
human C2 G677A = target: T1, human C2 G677A (human, UniProt P06681 21-752)
T1 sequence: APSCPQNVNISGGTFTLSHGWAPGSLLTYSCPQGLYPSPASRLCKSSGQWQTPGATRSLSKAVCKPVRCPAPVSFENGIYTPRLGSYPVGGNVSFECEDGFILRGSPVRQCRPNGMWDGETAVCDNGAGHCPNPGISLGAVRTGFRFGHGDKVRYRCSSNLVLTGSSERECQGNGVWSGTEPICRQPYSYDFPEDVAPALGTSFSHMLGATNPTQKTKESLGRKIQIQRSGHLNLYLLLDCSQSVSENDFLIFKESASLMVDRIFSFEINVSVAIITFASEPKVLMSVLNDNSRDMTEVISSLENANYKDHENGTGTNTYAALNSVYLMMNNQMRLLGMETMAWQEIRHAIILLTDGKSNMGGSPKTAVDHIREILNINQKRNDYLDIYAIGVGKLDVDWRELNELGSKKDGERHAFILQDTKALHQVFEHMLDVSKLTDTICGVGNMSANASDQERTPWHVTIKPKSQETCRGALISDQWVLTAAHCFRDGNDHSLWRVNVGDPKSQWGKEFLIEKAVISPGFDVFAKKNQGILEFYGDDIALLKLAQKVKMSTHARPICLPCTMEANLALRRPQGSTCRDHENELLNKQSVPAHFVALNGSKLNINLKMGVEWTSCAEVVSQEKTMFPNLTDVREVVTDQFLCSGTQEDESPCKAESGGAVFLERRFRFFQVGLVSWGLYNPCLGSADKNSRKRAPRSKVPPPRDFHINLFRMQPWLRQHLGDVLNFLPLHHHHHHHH

human C2 K676S = target: T2, human C2 K676S (human, UniProt P06681 21-752)
T2 sequence: T1 sequence with K656S, A657G

human C2 E450A = target: T3, human C2 E450A (human, UniProt P06681 21-752)
T3 sequence: T1 sequence with E430A, A657G

human C2 N471A = target: T4, human C2 N471A (human, UniProt P06681 21-752)
T4 sequence: T1 sequence with N451A, A657G

B1: RF16-226 (antibody, human IgG4 S228P, lambda)
heavy: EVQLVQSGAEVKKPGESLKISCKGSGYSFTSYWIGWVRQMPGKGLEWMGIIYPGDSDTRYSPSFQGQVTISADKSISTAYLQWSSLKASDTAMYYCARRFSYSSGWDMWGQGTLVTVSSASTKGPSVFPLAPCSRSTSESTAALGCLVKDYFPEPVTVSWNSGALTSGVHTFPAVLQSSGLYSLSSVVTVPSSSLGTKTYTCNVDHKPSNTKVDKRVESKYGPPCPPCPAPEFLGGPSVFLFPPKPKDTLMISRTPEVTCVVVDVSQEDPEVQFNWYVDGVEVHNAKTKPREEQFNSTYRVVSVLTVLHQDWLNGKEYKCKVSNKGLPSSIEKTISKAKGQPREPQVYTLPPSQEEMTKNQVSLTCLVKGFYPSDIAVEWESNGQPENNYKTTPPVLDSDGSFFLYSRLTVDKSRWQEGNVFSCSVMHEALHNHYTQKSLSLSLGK
light: SYELTQPPSVSVSPGQTARITCSGDALTSKYVAWYQQKSGLAPLLVIYEDTRRPSGIPAKFSGSSSGSVATLTISGAHGDDEADYYCYSTDASGHQRVFGGGTKLTVLSQPKAAPSVTLFPPSSEELQANKATLVCLISDFYPGAVTVAWKADGSPVKAGVETTKPSKQSNNKYAASSYLSLTPEQWKSHRSYSCQVTHEGSTVEKTVAPTECS
notes: pH-dependent anti-C2 antibody from a phage display library; also called WT
For B1, the Fold diff (human C2 G677A) was 1 fold, the Fold diff (human C2 K676S) was 2 fold and the Fold diff (human C2 E450A) was 0 fold. The Fold diff (human C2 N471A) was 1 fold.
